Assay [1] has as its target target proteins of calmodulin in serum-deprived and serum-stimulated Swiss 3T3 fibroblasts. Description: steady state fluorescence anisotropy imaging microscopy. (Polarisation of emitted light reports the rotation of a fluorescent probe.)
Assay [2] addresses calmodulin targets in the leading lamellae (region of transverse fibers) of Swiss 3T3 fibroblasts during wound healing. Described as above.

This is an account of results in paper PMC2119692.

For the substance “FITC-calmodulin (from UniProt P62157 1-149) (natural protein)”, in assay [1], the fraction bound (fB) is below 10% and the maximum fraction bound (fB) is 95%. In assay [2], this substance returned a maximum fraction bound (fB) of 50%.
